# Reference: PMC12786357
# B1: Gpi17: N228Q (protein)
# parent chain: MSNANLRKWVGFCFVAIYLFLGVPLWYKLTTVYRASLPINYIESLQNNKFQDIHLVIPVYVKSDTYRFPDVHDAIQVQVNHLLNSQEQRVPWSLQVLPYNETIEQMESEGNQFHVVTLKLDEFIGYSSAYDTKETLVYYDDAAVLSNDLPFFVAQTLVEHTFQLEWTHLNKTCEGVSTNNDVAISYDPNIHLSVTLLSGDGNPVAWEIEPTLTDYFSPFRKFLSPLVNFTVDSSIVYHNDLNLHSLNGSCTSVTWFDLSHTIDLSELSSMAYYPEDSALNLAIVFPSASSSPDGLAFINGTRISDEITTLDWNSYLVPQWGVIIINKMPLKPNSVISEDYLEPMMYRFATDIFQLLGLTEGSQDLLSPYITIDSFKRLTILQNLDKATETLWSLVKLTQQFQGMSIPREVSDNVIEALDLRLQIIDLLNDPGKGGDIVWNNALHLSNELVKLCEKAFFNGEMVQQNFFPQEHMIAVYLPLLGPISAVMFFGFYNVMKEKNQKSKKNGTEREVAKEKLELKEAQKLHAIDGEDEL
# B2: Gpi17: N299Q (protein)
# parent chain: B1 parent chain
# B3: Gpi16: N29Q (protein)
# parent chain: MILTLAYFMLGTLLLGVFAEDTVSQIGINDSLWYPYDEALVLKPLPNNDLLLSFAFQLQSEPFDPAVSSMSYDAYEHYTTFPRAIPPLLESTATRQFHLRFTRGFWDALSWGQLPHAGKEAGASGVELWSQVQAMDQEQAFHNWKKLSNSLSGLFCSSLNFIDESRTTFPRRSYASDIGAPLFNSTEKLYLMRASLPNEPICTENLTPFIKLLPTRGKSGLTSLLDGHKLFDSLWNSISLDIATICSEDEDALCHYEMDARIEMVTHVPSALARGERPIPKPLDGNTLRCDTDKPFDSYQCFPLPEPSQTHFKLSQLFARPINNGNLFANRPTRICAEVDRSTWTAFLSVDDTIFSTHDNCFDLSNDQNEGGSGYDFILESTDTTKVTPIVPVPIHVSRSLTGNGQDRGGMRIVFHNDNDTPVKLIYFESLPWFMRVYLSSLQITSTTSPQLQENDIILDKYYLQAADRKRPGHLEFTMLIPANTDIVMTYQFDKALLQFAEYPPDANHGFEIDAAVITVLSLESSSSLYEMRTSTLLLSLSTPDFSMPYNVIILTSTIMGLIFGMLYNLMVKRMVTVEEADKITLQSGLKYKLLKLKEKFLGKKKTKTD
# B4: Gpi16: N184Q (protein)
# parent chain: B3 parent chain
# Tests used:
# [1] = target: S. cerevisiae GPI transamidase (GPIT) complex (S. cerevisiae); test: cryo-EM structure; dimeric GPIT peak of the SEC, about 5 mg/mL, in GDN; overall resolution 4.4 Å; two copies of the monomer model docked as rigid bodies
# [2] = anti-FLAG western blot, HEK293F; conditions: glycan lost; control: wild type
# [3] = FACS, surface GFP-V5-CWP2 in yeast chromosomal mutants; conditions: glycan lost; control: wild type
stoichiometry N [1],Molecule,expression_or_secretion [2],enzymatic_activity [3]
2,S. cerevisiae GPI transamidase (GPIT) complex,,
,B1,no change,decreases
,B2,no change,decreases
,B3,no change,no change
,B4,no change,no change
